Laboratory results taken from paper PMC3296934 (Frontiers in Molecular Neuroscience, 2012).

B1: GST-RK fragment L102-G183 (domain or fragment)
chain: LRPQKAQALRAAYLEPQAQLFCSFLDAETVARARAGAGDGLFQPLLRAVLAHLGQAPFQEFLDSLYFLRFLQWKWLEAQPMG
B2: GST-RK fragment F125-K175 (domain or fragment)
chain: FLDAETVARARAGAGDGLFQPLLRAVLAHLGQAPFQEFLDSLYFLRFLQWK
B3: GST fusion of the RK amino terminal region (N-RK: M1-G183) (domain or fragment)
chain: MDFGSLETVVANSAFIAARGSFDASSGPASRDRKYLARLKLPPLSKCEALRESLDLGFEGMCLEQPIGKRLFQQFLRTHEQHGPALQLWKDIEDYDTADDALRPQKAQALRAAYLEPQAQLFCSFLDAETVARARAGAGDGLFQPLLRAVLAHLGQAPFQEFLDSLYFLRFLQWKWLEAQPMG
B4: GST-RK fragment M1-L102 (domain or fragment)
chain: MDFGSLETVVANSAFIAARGSFDASSGPASRDRKYLARLKLPPLSKCEALRESLDLGFEGMCLEQPIGKRLFQQFLRTHEQHGPALQLWKDIEDYDTADDAL

target: calmodulin (bovine, UniProt P62157 1-149); assay: SPR

B1 and B2 are within 1.5-fold of each other in Kd: 23 µM for the first, 17 µM for the second.

B3 and B4 are within 1.5-fold of each other in Kd: 63 µM for the first, 54 µM for the second.
